Results on two substances are retold here after PMC5886171.

Assay [1] concerns the target Full-length plasma gelsolin Gly167Arg (human) (UniProt P06396). In words: SEC-MALS; 200 µl of 4 mg/ml Gly167Arg GSN separated by gel filtration without calcium, on-line MALS, dn/dc 0.185.
Assay [2] deals with Gelsolin G2 domain (amino acids 151–266) carrying the Gly167Arg mutation (human) (UniProt P06396). In words: SEC; analytical gel filtration, Superdex 75 Increase 10/300 GL; 0.5 mg/ml isolated dimer or monomer incubated in 20 mM HEPES pH 7.4, 0.3 M NaCl with 1 mM CaCl2 at 4 °C, 1 mM CaCl2 at 25 °C or 1 mM EDTA at 4 °C; time course. In general terms: SEC sorts molecules by how far they enter the pores of the column.

The target is the same in assay [3]. In words: dynamic light scattering; 1 mg/ml monomer in 20 mM HEPES pH 7.4, 0.3 M NaCl, 1 mM EDTA, incubated at 4 °C; hydrodynamic radius against time, measured at 4 °C; monomer to dimer, pseudo-first-order fit.
Assay [4] shares this target. In words: dynamic light scattering; 1 mg/ml monomer in 20 mM HEPES pH 7.4, 0.3 M NaCl, 1 mM CaCl2, incubated at 25 °C; hydrodynamic radius against time, measured at 4 °C; monomer to dimer, pseudo-first-order fit.

The stoichiometry N is a count of units in the complex or per binding partner. For the substance “Full-length plasma gelsolin Gly167Arg (from UniProt P06396 26-782) (natural protein)”, the stoichiometry N in assay [1] worked out at 2.

The substance “Gelsolin G2 domain (amino acids 151–266) carrying the Gly167Arg mutation (from UniProt P06396 178-293) (domain or fragment)” registered a fraction of dimers at equilibrium in assay [2] of 50%. The pseudo-first-order rate constant k of the conversion of monomers to dimers stood at 2.1 h⁻¹ in assay [3] and 0.6 h⁻¹ in assay [4].
